Test results reported in US20260115302A1 (XILIO DEVELOPMENT, published 2026).

Target: T1, CD25-Fc (UniProt P01589 22-240)
T1 construct: Analyte flowed over the immobilised constructs in SPR (16, 8, 4, 2, 1 nM); also called IL-2Ralpha-Fc; not shown: Fc part of the reagent
T1 sequence (looked up): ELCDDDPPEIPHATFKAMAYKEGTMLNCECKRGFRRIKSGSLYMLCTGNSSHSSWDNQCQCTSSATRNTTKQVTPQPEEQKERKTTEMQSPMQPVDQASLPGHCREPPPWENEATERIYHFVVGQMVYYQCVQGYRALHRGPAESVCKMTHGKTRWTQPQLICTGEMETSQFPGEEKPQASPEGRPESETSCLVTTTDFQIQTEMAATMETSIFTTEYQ
Experiment: SPR (Reichert 4Channel, 25 C): MMP-activated construct immobilised on the chip by amine coupling, CD25-Fc flowed over as analyte

binding result: no binding
B1: AK168 after protease cleavage (Fc fusion)
chain: LYHPSGPAPTSSSTKKTQLQLEHLLLDLQMILNGINNYKNPKLTAMLTAKFAMPKKATELKHLQCLEEALKPLEEVLNLAQSKNFHLRPRDLISNINVIVLELKGSETTFMCEYADETATIVEFLNRWITFAQSIISTLT
notes: The fragments present on the SPR chip are not described
